Reference: the DeepSol protein solubility set

Test: soluble on expression in E. coli; label from the status in PepcDB or PDB records

Row | Sequence | soluble on expression in E. coli
1 | MALITTGSKFLRALEQEGALAVYAPLEGGYEGRYLRRLRSKGYSALTYSARGLGDPAQFLMDIHGVRPPHLGKQTIGNEAAVGRVEYVLPLVGYPLQNLPANAKGLVLWLLEGHVLSPQELSYFVTLPQAEPRLKVVIEMGGDRGFSWQPLAAVAEAALEHHHHHH | not soluble
2 | MALKGEGLQGLLGRGEARLGVGGEEAFQVKGGLLAEPRHGRMGSPVGVQGDLARGVGEGVLPGEHPVEDDPGGVDVSLGARGQAPDELGGQVGGGAQEKGLLETLLGGAREVKVQEAGLPGVHQDVLGLHVPVDQALFVHVGEGEEELVEDPHRLGKRGAFPHPAAELLPRGVGQEEGGAFLQVQGLEDGVEVGVGEPSPHPKLPVPAGAGLRGEELEGVGGAEGVKGQVDPGQGPAGQGPHHPVAAREGFAHQAHRPHYTLRKPGYHGPMRGLVLSGGGARGFAHIGALEVFVEAGLDFEVVAGASMGAIVGALFAAGRSPQEILEIARNTPWLGILGFSFREALFSRGRLRRYLAEHLPQDFADLKRRLVVTAVEVRSGRVVYLFQGDLVSAVLASAAHPLLLRPVRREGLLLFDGGVLDNLPVDAARFLGAEEVWAVDVTPERSVEKPPEGVLGLALRAVDLMQHHLTASRMALYAPEVYLRPELGEVAVQDFLRLEEAVEAGRKAAKRFLESRVGEV | soluble
3 | MALKPTIYKFRIALSDMNNDYYDSKNLTIALHPSEKPQRMLARILAFCLNAQKDLEFTKGLSTTEEPDLWHVADDQSITHWIEIGEPEPDRIKKASRLAKQVKVYTYNTKAPVWWEKMSGKFSMLPVSVESFDYDAIDMICQHLDRGTNLSVMITGTSIFVDVNDQHVEVTVKELQSHDAP | not soluble
4 | MALLERILARDNLITALKRVEANQGAPGIDGVSTDQLRDDVRAHWSTIRAQLLAGTYRPAPVRRVEIPKPGGGTRQLGIPTVVDRLIQQAILQELTPIFDPDFSPSSFGFRPGRNAHDAVRQAQGYIQEGYRYVVDMDLEKFFDRVNHDILMSRVARKVKDKRVLKLIRAYLQAGVMIEGVKVQTEEGTPQGGPLSPLLANILLDDLDKELEKRGLKFCRYADDCNIYVKSLRAGQRVKQSIQRFLEKTLKLKVNEEKSAVDRPWKRAFLGFSFTPERKARIRLAPRSIQRLKQRIRQLTNPNWSISMPERIHRVNQYVMGWIGYFRLVETPSVLQTIEGWIRRRLRLCQWLQWKRVRTRIRELRALGLKETAVMEIANTRKGAWRTTKTPQLHQALGKTYWTAQGLKSLTQRYFELRQG | not soluble
5 | MALNDFHVSEPYTLGIELEMQVINPPGYDLSQDSSTLIDAVKPQLTAGEIKHDITESMLEMATGVCRDIDQAAAQLSAMQHVILQAASEHHLGICGGGTHPFQKWQRQEVCDNERYQRTLENFGYLIQQATVFGQHVHVGCANGDDAIYLLHGLSHFVPHFIALSAASPYMQGADTRFACARLNIFSAFPDNGPMPWVSNWQEFAGLFRRLSYTTMIDSIKDLHWDIRPSPAFGTVEVRVMDTPLTLDHAINMAGLIQATAHWLLTERPFKPQEQDYLLYKFNRFQACRYGLEGVLTDAYTGDRRRLADDTLRLLDNVTPSARKLGADSAIDALRLQVKKGGNEAQYMREFIADGGSLIGLVQKHCEIWAGQ | soluble
6 | MALNGAEVDDFSWEPPTEAETKVLQARRERQDRISRLMGDYLLRGYRMLGETCADCGTILLQDKQRKIYCVACQELDSDVDKDNPALNAQAALSQAREHQLASASELPLGSRPAPQPPVPRPEHCEGAAAGLKAAQGPPAPAVPPNTDVMACTQTALLQKLTWASAELGSSTSLETSIQLCGLIRACAEALRSLQQLQHLEHHHHHH | not soluble
7 | MALPKLTDEQRKEALAKAAEARKARAELKEQLKRSDITLKEVLDKASSDEIIGKTKVSALLESLPKVGKVKAKEIMEELEIAQTRRLRGLGDRQRRALLERFGYSED | not soluble
8 | MALQVASAPHGSSEDSTSASLPANYPYHTRMRRNEYEKAKHDLQIELLKVQSWVKETGQRVVVLFEGRDAAGKGGTIKRFMEHLNPRGARIVALEKPSSQEQGQWYFQRYIQHLPTAGEMVFFDRSWYNRAGVERVMGFCSPLQYLEFMRQAPELERMLTNSGILLFKYWFSVSREEQLRRFISRRDDPLKHWKLSPIDIKSLDKWDDYTAAKQAMFFHTDTADAPWTVIKSDDKKRARLNCIRHFLHSLDYPDKDRRIAHEPDPLLVGPASRVIEEDEKVYAEAAAAPGHANLDIPA | not soluble
9 | MALTSFLPAPTQLSQDQLEAEEKARSQRSRQTSLVSSRREPPPYGYRKGWIPRLLEDFGDGGAFPEIHVAQYPLDMGRKKKMSNALAIQVDSEGKIKYDAIARQGQSKDKVIYSKYTDLVPKEVMNADDPDLQRPDEEAIKEITEKTRVALEKSVSQKVAAAMPVRAADKLAPAQYIRYTPSQQGVAFNSGAKQRVIRMVEMQKDPMEPPRFKINKKIPRGPPSPPAPVMHSPSRKMTVKEQQEWKIPPCISNWKNAKGYTIPLDKRLAADGRGLQTVHINENFAKLAEALYIADRKAREAVEMRAQVERKMAQKEKEKHEEKLREMAQKARERRAGIKTHVEKEDGEARERDEIRHDRRKERQHDRNLSRAAPDKRSKLQRNENRDISEVIALGVPNPRTSNEVQYDQRLFNQSKGMDSGFAGGEDEIYNVYDQAWRGGKDMAQSIYRPSKNLDKDMYGDDLEARIKTNRFVPDKEFSGSDRRQRGREGPVQFEEDPFGLDKFLEEAKQHGGSKRPSDSSRPKEHEHEGKKRRKE | soluble
10 | MALVIAGERSGVGKTTVTLTLLASLCRRSAIVQSFKVGPDYIDPMFHTYVTGRACRNLDPVLTSEAYVQQCFARHYQESEYALVEGVMGLFDGIGRQEAGGQGAGGRENNFSTSHSALTTDFASTAHVARLLDLPVVLVIDCSRLSGSVAAIAHGYCSFDPRIKMAGVVLNRVGSDRHLSLLQDALKPLQLPILGVLRRQDDITIPDRHLGLIPTAELPELNAVINRLADLGDTCFDWQNLLPLLQAKEVGGREQGAGSRGQGAGEAGEAGGELTARFSPNPQSPIPNPQSPVPHPPKIAVARDRAFNFYYQDNLDLLQQLGAELVFWSPLTDGELPSGVRGMYFGGGFPEVFASQLAENSSARDAVKQAILAGMPTIAECGGLMYLCEQIIDFEGQSWPMVGVLPTSAAMGGRLTLGYRRAVALQDSLLVNVGTHIYGHEFHRSRLITAPTQPLFETYRYDCPENMGCEGWGFPKNIHASYVHLHWGESGEIPRQFIQQCAYFGETIDLVHMYLEHHHHHH | not soluble
11 | MAMWVFGYGSLIWKTGFPFDESLPGFIKGYRRVFHQGSTDHRGTPDFPGRTVTLEAAHEEHLEVREKQYDQKEYLDFFTDSNASEPAVAGVMVYIASPDKKSNNNYLGPAPLEDIAKQIVKAKGPSGPNRDYLFNLEEALAQLGFKDKHVTDLANQVRHILSESEELDIDATAATANNV | soluble
12 | MANDEEFFIVRCRGPSSYRESVYKYLTGQPSDWNRNSVFLRNMHVGRAKNVKEIFNCILQTQPLPVVQPCHPVRQPRESFYSSHEHDPMDEVLLQEVKEEAHSLAFKGIPIETKGPTPSSTIMNPEVTLRDVLTFHKNIKRRPQETKPAKFDFSAMPSTSRLPPTSPKRYRQFAPPPISMKQSPKICAKTVSCPSTSEVKSPPKKMIIQKIQKHQEAPKPAKVPKIKGEKKKKDGRQDEQEEIDIELKLSKSTVSSQTLKRHNISFERKPQRGI | not soluble
13 | MANEANPCPCDIGHKLEYGGMGHEVQVEHIKAYVTRSPVDAGKAVIVVQDIFGWQLPNTRYMADMIARNGYTTIVPDFFVGQEPWDPAGDWSTFPAWLKSRNARKVNREVDAVLRYLRQQCHAQKIGIVGFCWGGVVVHQVMTAYPDIRAGVSVYGIIRDSEDVYNLKNPTLFIFAENDTVIPLEQVSTLTQKLKEHCIVNYQVKTFSGQTHGFVHRKREDCSPADKPYIEEARRNLIEWLNKYV | not soluble
14 | MANFPASLLILNGKSADNQPLREAITLLRDEGIQIHVRVTWEKGDAQRYVDEARRLGVETVIAGGGDGTINEVSTALIQIRDGVAPALGLLPLGTANDFATSAGIPEALDKALKLAIAGNAMEIDMAMVNDKTCFINMATGGFGTRITTETPEKLKAALGGVSYLIHGLMRMDTLTPDRCEIRGENFHWQGDALVIGIGNGRQAGGGQQLCPTALINDGLLQLRIFTGEELLPALFSTLTQSDDNPNIIDGASAWFDIHAPHEITFNLDGEPLSGQEFHIEVLPGALRCRLPPDCPLLR | soluble
